Columns and labels:
COS-7 cells [1] = test: Brefeldin A treatment of COS-7 cells transfected with CD39-L2, secretion; type: cell-based; settings: transfected COS-7 cells, 8 hours, varying dosages
COS-7 cells [2] = test: Brefeldin A treatment of COS-7 cells transfected with CD39-L4-6His, secretion; type: cell-based; settings: transfected COS-7 cells, 8 hours, increasing dosages
[3] = Assay for ATPase activity, [33P]Pi released from [γ33P]ATP; type: biochemical; settings: transfected COS-7 cells, 10 μCi [γ33P]ATP, one hour, 37° C.
[4] = Kinetic characteristics of CD39L4 ADP hydrolysis; type: biochemical
[5] = ADPase activity of CD39-L4 from transfected COS-7 cells, stimulation by divalent cations; type: biochemical; settings: 1 mM ADP
[6] = ADPase and ATPase activity of CD39L4 wild type and ACR mutants, inorganic phosphate released; type: biochemical
[7] = membrane bound or engineered soluble form; cited from earlier work

In the case of `C[C@H]1CCC/C=C/[C@@H]2C[C@H](O)C[C@H]2[C@H](O)/C=C/C(=O)O1` [brefeldin A], the “effect on recombinant CD39-L2 in the media” value (COS-7 cells [1]) is reported as “decreased in a brefeldin A dose dependent manner” and the “effect on secretion of CD39-L4-6His” value (COS-7 cells [2]) is reported as “blocked secretion of CD39-L4-6His”.

B1: CD39-L4: novel human CD39-like protein, 428 amino acids, amino acid sequence SEQ ID NO: 3; soluble apyrase specific for NDPs (protein)
chain: MATSWGTVFFMLVVSCVCSAVSHRNQQTWFEGIFLSSMCPINVSASTLYGIMFDAGSTGTRIHVYTFVQKMPGQLPILEGEVFDSVKPGLSAFVDQPKQGAETVQGLLEVAKDSIPRSHWKKTPVVLKATAGLRLLPEHKAKALLFEVKEIFRKSPFLVPKGSVSIMDGSDEGILAWVTVNFLTGQLHGHRQETVGTLDLGGASTQITFLPQFEKTLEQTPRGYLTSFEMFNSTYKLYTHSYLGFGLKAARLATLGALETEGTDGHTFRSACLPRWLEAEWIFGGVKYQYGGNQEGEVGFEPCYAEVLRVVRGKLHQPEEVQRGSFYAFSYYYDRAVDTDMIDYEKGGILKVEDFERKAREVCDNLENFTSGSPFLCMDLSYITALLKDGFGFADSTVLQLTKKVNNIETGWALGATFHLLQSLGISH
In the case of B1, the “increase in ATPase activity over cells transfected with vector alone” value [3] is reported as “at least a four fold increase in activity”, the “cooperativity of ADPase activity, in words” value [4] is reported as “does not appear to possess cooperativity” and the “Vmax of ADP hydrolysis” value ([4]; 15 mM CaCl2, ADP 0.75-18 mM, 37° C., 15 min, 60 ng protein per reaction, Michaelis-Menten fit) is reported as 1191 pmol/min. For the same molecule, the Km ([4]; 15 mM CaCl2, ADP 0.75-18 mM, 37° C., 15 min, Michaelis-Menten fit) was 12.7 mM, the “turnover number, kcat, ADP as substrate” value ([4]; assuming 60 ng protein and 46000 g/mol) was 15.2 s⁻¹ and the “fold increase in ADPase activity over cells transfected with vector alone” value ([5]; CD39-L4-6His from COS-7 medium on Nickel-NTA resin, 37° C., 30 min, no added cation) was 2.3 fold. For the same molecule, the “fold increase in ADPase activity when Ca2+ added” value ([5]; Ca2+ added) was 3.6 fold, the “fold increase in ADPase activity when Mg2+ added” value ([5]; Mg2+ added) was 6 fold and the “hydrolysis of ADP, in words” value ([6]; ADP as substrate) was “hydrolyze ADP”. For the same molecule, the “hydrolysis of ATP, in words” value ([6]; ATP as substrate) was “neither the CD39L4 nor the CD39L4 mutant, ACR III, catalyzed hydrolysis”.

B2: CD39-L66: isoform (splice variant) of CD39-L4, amino acid sequence SEQ ID NO: 25 (protein)
chain: MATSWGTVFFMLVVSCVCSAVSHRNQQTWFEGIFLSSMCPINVSASTLYGIMFDAGSTGTRIHVYTFVQKMPGQLPILEGEVFDSVKPGLSAFVDQPKQGAETVQGLLEVAKDSIPRSHWKKTPVVLKATAGLRLLPEHKAKALLFEVKEIFRKSPFLVPKGSVSIMDGSDEGILAWVTVNFLTGQLHGHRQETVGTLDLGGASTQITFLPQFEKTLEQTPRGYLTSFEMFNSTYKLYTHSYLGFGLKAARLATLGALETEGTDGHTFRSACLPRWLEAEWIFGGVKYQYGGNQEGEVGFEPCYAEVLRVVRGKLHQPEEVQRGSFYAFSYYYDRAVDTDMIDYEKGGILKVEDFERKAREVCDNLENFTSGSPFLCMDLSYITALLKDGFGFADSTVLQAAVLR
With B2 the “increase in ATPase activity over cells transfected with vector alone” value [3] was “at least a four fold increase in activity”.

B3: CD39: 510-amino acid cell-surface ecto-apyrase (ATPDase) (protein, UniProt P49961 1-510, looked up)
Ectonucleoside triphosphate …: MEDTKESNVKTFCSKNILAILGFSSIIAVIALLAVGLTQNKALPENVKYGIVLDAGSSHTSLYIYKWPAEKENDTGVVHQVEECRVKGPGISKFVQKVNEIGIYLTDCMERAREVIPRSQHQETPVYLGATAGMRLLRMESEELADRVLDVVERSLSNYPFDFQGARIITGQEEGAYGWITINYLLGKFSQKTRWFSIVPYETNNQETFGALDLGGASTQVTFVPQNQTIESPDNALQFRLYGKDYNVYTHSFLCYGKDQALWQKLAKDIQVASNEILRDPCFHPGYKKVVNVSDLYKTPCTKRFEMTLPFQQFEIQGIGNYQQCHQSILELFNTSYCPYSQCAFNGIFLPPLQGDFGAFSAFYFVMKFLNLTSEKVSQEKVTEMMKKFCAQPWEEIKTSYAGVKEKYLSEYCFSGTYILSLLLQGYHFTADSWEHIHFIGKIQGSDAGWTLGYMLNLTNMIPAEQPLSTPLSHSTYVFLMVLFSLVLFTVAIIGLLIFHKPSYFWKDMV
In the case of B3, the “hydrolysis of ATP and ADP, in words” value [7] is given as “able to hydrolyze both ATP and ADP substrates efficiently”.
